Starred links: 1 amine or outer side, 2 acyl side, 3 side chain; linkers in the order of their positions; H or OH if unused. Non-standard residues stand in square brackets, D forms with d. Groups on a side chain read outwards from the residue. No end group written: not given here. *: point of attachment. C20 diacid = O=C(O)CCCCCCCCCCCCCCCCCCC(=O)*; C18 diacid = O=C(O)CCCCCCCCCCCCCCCCC(=O)*; C16 diacid = O=C(O)CCCCCCCCCCCCCCC(=O)*; γGlu = O=C(O)[C@H](CCC(=O)[*:2])N[*:1]; Palmitoyl = CCCCCCCCCCCCCCCC(=O)*; AEEA = NCCOCCOCC(=O)O; Aib = CC(C)(N)C(=O)O

In the assay the target is human corticotropin-releasing factor 2α (CRF2 α receptor) (human), Q13324. The assay is described as follows: cell-based or functional assay.
Sequence of human corticotropin-releasing factor 2α (CRF2 α receptor) (human), Q13324 (Q13324 20-411): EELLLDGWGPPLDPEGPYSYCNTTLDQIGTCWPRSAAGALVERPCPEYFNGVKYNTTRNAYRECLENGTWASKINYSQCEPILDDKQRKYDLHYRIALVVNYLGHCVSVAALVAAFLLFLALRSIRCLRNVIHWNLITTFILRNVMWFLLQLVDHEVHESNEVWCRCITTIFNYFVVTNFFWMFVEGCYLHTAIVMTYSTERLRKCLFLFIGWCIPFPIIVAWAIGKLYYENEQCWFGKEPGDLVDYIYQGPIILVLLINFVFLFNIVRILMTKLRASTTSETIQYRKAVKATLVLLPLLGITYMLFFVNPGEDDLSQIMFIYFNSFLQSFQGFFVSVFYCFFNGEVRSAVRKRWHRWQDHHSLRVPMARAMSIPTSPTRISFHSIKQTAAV

B1: SEQ ID NO: 182 (peptide)
peptide: IVLSLD[dV]PIKLK(C18 diacid)QILLKQERQK[Aib]QREQAEKNKQILAQV-NH2
modifications: N-terminus assumed
SMILES: CC[C@H](C)[C@H](N)C(=O)N[C@H](C(=O)N[C@@H](CC(C)C)C(=O)N[C@@H](CO)C(=O)N[C@@H](CC(C)C)C(=O)N[C@@H](CC(=O)O)C(=O)N[C@@H](C(=O)N1CCC[C@H]1C(=O)N[C@H](C(=O)N[C@@H](CCCCN)C(=O)N[C@@H](CC(C)C)C(=O)N[C@@H](CCCCNC(=O)CCCCCCCCCCCCCCCCC(=O)O)C(=O)N[C@@H](CCC(N)=O)C(=O)N[C@H](C(=O)N[C@@H](CC(C)C)C(=O)N[C@@H](CC(C)C)C(=O)N[C@@H](CCCCN)C(=O)N[C@@H](CCC(N)=O)C(=O)N[C@@H](CCC(=O)O)C(=O)N[C@@H](CCCNC(=N)N)C(=O)N[C@@H](CCC(N)=O)C(=O)N[C@@H](CCCCN)C(=O)NC(C)(C)C(=O)N[C@@H](CCC(N)=O)C(=O)N[C@@H](CCCNC(=N)N)C(=O)N[C@@H](CCC(=O)O)C(=O)N[C@@H](CCC(N)=O)C(=O)N[C@@H](C)C(=O)N[C@@H](CCC(=O)O)C(=O)N[C@@H](CCCCN)C(=O)N[C@@H](CC(N)=O)C(=O)N[C@@H](CCCCN)C(=O)N[C@@H](CCC(N)=O)C(=O)N[C@H](C(=O)N[C@@H](CC(C)C)C(=O)N[C@@H](C)C(=O)N[C@@H](CCC(N)=O)C(=O)N[C@H](C(N)=O)C(C)C)[C@@H](C)CC)[C@@H](C)CC)[C@@H](C)CC)C(C)C)C(C)C
On to B1, for which the EC50 [nM], 0% HSA is 0.03 nM and the EC50 [nM], 0.1% HSA worked out at 3.13 nM.

B2: SEQ ID NO: 184 (peptide)
peptide: IVLSLD[dV]PIKLK(C18 diacid)QILLKQERQKKQRQQAEKNKQILAQV-NH2
modifications: N-terminus assumed
SMILES: CC[C@H](C)[C@H](N)C(=O)N[C@H](C(=O)N[C@@H](CC(C)C)C(=O)N[C@@H](CO)C(=O)N[C@@H](CC(C)C)C(=O)N[C@@H](CC(=O)O)C(=O)N[C@@H](C(=O)N1CCC[C@H]1C(=O)N[C@H](C(=O)N[C@@H](CCCCN)C(=O)N[C@@H](CC(C)C)C(=O)N[C@@H](CCCCNC(=O)CCCCCCCCCCCCCCCCC(=O)O)C(=O)N[C@@H](CCC(N)=O)C(=O)N[C@H](C(=O)N[C@@H](CC(C)C)C(=O)N[C@@H](CC(C)C)C(=O)N[C@@H](CCCCN)C(=O)N[C@@H](CCC(N)=O)C(=O)N[C@@H](CCC(=O)O)C(=O)N[C@@H](CCCNC(=N)N)C(=O)N[C@@H](CCC(N)=O)C(=O)N[C@@H](CCCCN)C(=O)N[C@@H](CCCCN)C(=O)N[C@@H](CCC(N)=O)C(=O)N[C@@H](CCCNC(=N)N)C(=O)N[C@@H](CCC(N)=O)C(=O)N[C@@H](CCC(N)=O)C(=O)N[C@@H](C)C(=O)N[C@@H](CCC(=O)O)C(=O)N[C@@H](CCCCN)C(=O)N[C@@H](CC(N)=O)C(=O)N[C@@H](CCCCN)C(=O)N[C@@H](CCC(N)=O)C(=O)N[C@H](C(=O)N[C@@H](CC(C)C)C(=O)N[C@@H](C)C(=O)N[C@@H](CCC(N)=O)C(=O)N[C@H](C(N)=O)C(C)C)[C@@H](C)CC)[C@@H](C)CC)[C@@H](C)CC)C(C)C)C(C)C
In turn, B2 registered an EC50 [nM], 0% HSA of 0.05 nM and an EC50 [nM], 0.1% HSA of 2.83 nM.

B3: SEQ ID NO: 22 (peptide)
peptide: IVLSLDVPIKLK([AEEA-AEEA-γGlu-C18 diacid])QILLKQERQK[Aib]QRQKAEKNKQILAQV-NH2
modifications: N-terminus assumed
SMILES: CC[C@H](C)[C@H](N)C(=O)N[C@H](C(=O)N[C@@H](CC(C)C)C(=O)N[C@@H](CO)C(=O)N[C@@H](CC(C)C)C(=O)N[C@@H](CC(=O)O)C(=O)N[C@H](C(=O)N1CCC[C@H]1C(=O)N[C@H](C(=O)N[C@@H](CCCCN)C(=O)N[C@@H](CC(C)C)C(=O)N[C@@H](CCCCNC(=O)COCCOCCNC(=O)COCCOCCNC(=O)CC[C@H](NC(=O)CCCCCCCCCCCCCCCCC(=O)O)C(=O)O)C(=O)N[C@@H](CCC(N)=O)C(=O)N[C@H](C(=O)N[C@@H](CC(C)C)C(=O)N[C@@H](CC(C)C)C(=O)N[C@@H](CCCCN)C(=O)N[C@@H](CCC(N)=O)C(=O)N[C@@H](CCC(=O)O)C(=O)N[C@@H](CCCNC(=N)N)C(=O)N[C@@H](CCC(N)=O)C(=O)N[C@@H](CCCCN)C(=O)NC(C)(C)C(=O)N[C@@H](CCC(N)=O)C(=O)N[C@@H](CCCNC(=N)N)C(=O)N[C@@H](CCC(N)=O)C(=O)N[C@@H](CCCCN)C(=O)N[C@@H](C)C(=O)N[C@@H](CCC(=O)O)C(=O)N[C@@H](CCCCN)C(=O)N[C@@H](CC(N)=O)C(=O)N[C@@H](CCCCN)C(=O)N[C@@H](CCC(N)=O)C(=O)N[C@H](C(=O)N[C@@H](CC(C)C)C(=O)N[C@@H](C)C(=O)N[C@@H](CCC(N)=O)C(=O)N[C@H](C(N)=O)C(C)C)[C@@H](C)CC)[C@@H](C)CC)[C@@H](C)CC)C(C)C)C(C)C
Consider B3, for which the EC50 [nM], 0% HSA worked out at 0.12 nM.

B4: SEQ ID NO: 222 (peptide)
peptide: IVLSLD[dV]PTKLK([γGlu-C16 diacid])QKLLKQERQRKEREQAEKNVRILERV-NH2
modifications: N-terminus assumed
SMILES: CC[C@H](C)[C@H](N)C(=O)N[C@H](C(=O)N[C@@H](CC(C)C)C(=O)N[C@@H](CO)C(=O)N[C@@H](CC(C)C)C(=O)N[C@@H](CC(=O)O)C(=O)N[C@@H](C(=O)N1CCC[C@H]1C(=O)N[C@H](C(=O)N[C@@H](CCCCN)C(=O)N[C@@H](CC(C)C)C(=O)N[C@@H](CCCCNC(=O)CC[C@H](NC(=O)CCCCCCCCCCCCCCC(=O)O)C(=O)O)C(=O)N[C@@H](CCC(N)=O)C(=O)N[C@@H](CCCCN)C(=O)N[C@@H](CC(C)C)C(=O)N[C@@H](CC(C)C)C(=O)N[C@@H](CCCCN)C(=O)N[C@@H](CCC(N)=O)C(=O)N[C@@H](CCC(=O)O)C(=O)N[C@@H](CCCNC(=N)N)C(=O)N[C@@H](CCC(N)=O)C(=O)N[C@@H](CCCNC(=N)N)C(=O)N[C@@H](CCCCN)C(=O)N[C@@H](CCC(=O)O)C(=O)N[C@@H](CCCNC(=N)N)C(=O)N[C@@H](CCC(=O)O)C(=O)N[C@@H](CCC(N)=O)C(=O)N[C@@H](C)C(=O)N[C@@H](CCC(=O)O)C(=O)N[C@@H](CCCCN)C(=O)N[C@@H](CC(N)=O)C(=O)N[C@H](C(=O)N[C@@H](CCCNC(=N)N)C(=O)N[C@H](C(=O)N[C@@H](CC(C)C)C(=O)N[C@@H](CCC(=O)O)C(=O)N[C@@H](CCCNC(=N)N)C(=O)N[C@H](C(N)=O)C(C)C)[C@@H](C)CC)C(C)C)[C@@H](C)O)C(C)C)C(C)C
Consider B4, for which the EC50 [nM], 0% HSA came to 0.01 nM.

B5: SEQ ID NO: 224 (peptide)
peptide: IVLSLD[dV]PTKLK([AEEA-AEEA-γGlu-C20 diacid])KKLLKQERKR[Aib]EREKAEKAARILERV-NH2
In turn, B5 had an EC50 [nM], 0% HSA of 6.85 nM.

B6: SEQ ID NO: 23 (peptide)
peptide: IVLSLD[dV]PTKLK([γGlu-Palmitoyl])QKLLKQERQRKER[Aib]QAEKNKRILERV-NH2
modifications: N-terminus assumed
SMILES: CCCCCCCCCCCCCCCC(=O)N[C@@H](CCC(=O)NCCCC[C@H](NC(=O)[C@H](CC(C)C)NC(=O)[C@H](CCCCN)NC(=O)[C@@H](NC(=O)[C@@H]1CCCN1C(=O)[C@H](NC(=O)[C@H](CC(=O)O)NC(=O)[C@H](CC(C)C)NC(=O)[C@H](CO)NC(=O)[C@H](CC(C)C)NC(=O)[C@@H](NC(=O)[C@@H](N)[C@@H](C)CC)C(C)C)C(C)C)[C@@H](C)O)C(=O)N[C@@H](CCC(N)=O)C(=O)N[C@@H](CCCCN)C(=O)N[C@@H](CC(C)C)C(=O)N[C@@H](CC(C)C)C(=O)N[C@@H](CCCCN)C(=O)N[C@@H](CCC(N)=O)C(=O)N[C@@H](CCC(=O)O)C(=O)N[C@@H](CCCNC(=N)N)C(=O)N[C@@H](CCC(N)=O)C(=O)N[C@@H](CCCNC(=N)N)C(=O)N[C@@H](CCCCN)C(=O)N[C@@H](CCC(=O)O)C(=O)N[C@@H](CCCNC(=N)N)C(=O)NC(C)(C)C(=O)N[C@@H](CCC(N)=O)C(=O)N[C@@H](C)C(=O)N[C@@H](CCC(=O)O)C(=O)N[C@@H](CCCCN)C(=O)N[C@@H](CC(N)=O)C(=O)N[C@@H](CCCCN)C(=O)N[C@@H](CCCNC(=N)N)C(=O)N[C@H](C(=O)N[C@@H](CC(C)C)C(=O)N[C@@H](CCC(=O)O)C(=O)N[C@@H](CCCNC(=N)N)C(=O)N[C@H](C(N)=O)C(C)C)[C@@H](C)CC)C(=O)O
The molecule B6 yielded an EC50 [nM], 0% HSA of 0.02 nM.

B7: SEQ ID NO: 183 (peptide)
peptide: IVLSLD[dV]PIKLK(C18 diacid)QILLKQARQK[Aib]QRAQAEKNKRILERV-NH2
modifications: N-terminus assumed
SMILES: CC[C@H](C)[C@H](N)C(=O)N[C@H](C(=O)N[C@@H](CC(C)C)C(=O)N[C@@H](CO)C(=O)N[C@@H](CC(C)C)C(=O)N[C@@H](CC(=O)O)C(=O)N[C@@H](C(=O)N1CCC[C@H]1C(=O)N[C@H](C(=O)N[C@@H](CCCCN)C(=O)N[C@@H](CC(C)C)C(=O)N[C@@H](CCCCNC(=O)CCCCCCCCCCCCCCCCC(=O)O)C(=O)N[C@@H](CCC(N)=O)C(=O)N[C@H](C(=O)N[C@@H](CC(C)C)C(=O)N[C@@H](CC(C)C)C(=O)N[C@@H](CCCCN)C(=O)N[C@@H](CCC(N)=O)C(=O)N[C@@H](C)C(=O)N[C@@H](CCCNC(=N)N)C(=O)N[C@@H](CCC(N)=O)C(=O)N[C@@H](CCCCN)C(=O)NC(C)(C)C(=O)N[C@@H](CCC(N)=O)C(=O)N[C@@H](CCCNC(=N)N)C(=O)N[C@@H](C)C(=O)N[C@@H](CCC(N)=O)C(=O)N[C@@H](C)C(=O)N[C@@H](CCC(=O)O)C(=O)N[C@@H](CCCCN)C(=O)N[C@@H](CC(N)=O)C(=O)N[C@@H](CCCCN)C(=O)N[C@@H](CCCNC(=N)N)C(=O)N[C@H](C(=O)N[C@@H](CC(C)C)C(=O)N[C@@H](CCC(=O)O)C(=O)N[C@@H](CCCNC(=N)N)C(=O)N[C@H](C(N)=O)C(C)C)[C@@H](C)CC)[C@@H](C)CC)[C@@H](C)CC)C(C)C)C(C)C
In turn, B7 came in with an EC50 [nM], 0% HSA of 0.12 nM and an EC50 [nM], 0.1% HSA of 1.58 nM.

For the origin of these results see patent US12679878B2, “CRF2 receptor agonists and their use in therapy” (SANOFI, priority 2020, dated 2026).
